Test results taken from the supplement of paper PMC11246515.
± gives the standard deviation of the averaged measurements.

Assay: total protein half-life in vivo (active degradation + dilution); higher = more stable protein
[1] = wild type E. coli NCM3722, growth: C-lim chemostat, doubling time 3 h
[2] = wild type E. coli NCM3722, growth: C-lim chemostat, doubling time 6 h
[3] = wild type E. coli NCM3722, growth: N-lim chemostat, doubling time 6 h
[4] = wild type E. coli NCM3722, growth: N-lim chemostat, doubling time 12 h
[5] = wild type E. coli NCM3722, growth: P-lim chemostat, doubling time 6 h
[6] = E. coli NCM3722 delta-clpP delta-lon delta-hslV, growth: N-lim chemostat, doubling time 6 h
[7] = E. coli NCM3722 delta-clpP, growth: N-lim chemostat, doubling time 6 h
[8] = E. coli NCM3722 delta-hslV, growth: N-lim chemostat, doubling time 6 h
[9] = E. coli NCM3722 delta-lon, growth: N-lim chemostat, doubling time 6 h
[10] = E. coli NCM3722 delta-smpB, growth: N-lim chemostat, doubling time 6 h
[11] = wild type E. coli NCM3722, growth: C-lim chemostat, doubling time 12 h
[12] = wild type E. coli NCM3722, growth: P-lim chemostat, doubling time 12 h

Sequence | total protein half-life in vivo [1] [h] | total protein half-life in vivo [2] [h] | total protein half-life in vivo [3] [h] | total protein half-life in vivo [4] [h] | total protein half-life in vivo [5] [h] | total protein half-life in vivo [6] [h] | total protein half-life in vivo [7] [h] | total protein half-life in vivo [8] [h] | total protein half-life in vivo [9] [h] | total protein half-life in vivo [10] [h] | total protein half-life in vivo [11] [h] | total protein half-life in vivo [12] [h]
MKSALKKSVVSTSISLILASGMAAFAAHAADDVKLKATKTNVAFSDFTPTEYSTKGKPNIIVLTMDDLGYGQLPFDKGSFDPKTMENREVVDTYKIGIDKAIEAAQKSTPTLLSLMDEGVRFTNGYVAHGVSGPSRAAIMTGRAPARFGVYSNTDAQDGIPLTETFLPELFQNHGYYTAAVGKWHLSKISNVPVPEDKQTRDYHDNFTTFSAEEWQPQNRGFDYFMGFHAAGTAYYNSPSLFKNRERVPAKGYISDQLTDEAIGVVDRAKTLDQPFMLYLAYNAPHLPNDNPAPDQYQKQFNTGSQTADNYYASVYSVDQGVKRILEQLKKNGQYDNTIILFTSDNGAVIDGPLPLNGAQKGYKSQTYPGGTHTPMFMWWKGKLQPGNYDKLISAMDFYPTALDAADISIPKDLKLDGVSLLPWLQDKKQGEPHKNLTWITSYSHWFDEENIPFWDNYHKFVRHQSDDYPHNPNTEDLSQFSYTVRNNDYSLVYTVENNQLGLYKLTDLQQKDNLAAANPQVVKEMQGVVREFIDSSQPPLSEVNQEKFNNIKKALSEAK | 2.86 ± 0.07 | 5.43 ± 0.41 | 7.26 | 6.32 | 5 ± 0.63 |  |  |  |  |  |  | 
MKRVSQMTALAMALGLACASSWAAELAKPLTLDQLQQQNGKAIDTRPSAFYNGWPQTLNGPSGHELAALNLSASWLDKMSTEQLNAWIKQHNLKTDAPVALYGNDKDVDAVKTRLQKAGLTHISILSDALSEPSRLQKLPHFEQLVYPQWLHDLQQGKEVTAKPAGDWKVIEAAWGAPKLYLISHIPGADYIDTNEVESEPLWNKVSDEQLKAMLAKHGIRHDTTVILYGRDVYAAARVAQIMLYAGVKDVRLLDGGWQTWSDAGLPVERGTPPKVKAEPDFGVKIPAQPQLMLDMEQARGLLHRQDASLVSIRSWPEFIGTTSGYSYIKPKGEIAGARWGHAGSDSTHMEDFHNPDGTMRSADDITAMWKAWNIKPEQQVSFYCGTGWRASETFMYARAMGWKNVSVYDGGWYEWSSDPKNPVATGERGPDSSK | 3.2 ± 0.56 | 6.183 ± 0.011 | 6.69 ± 1.1 | 13 ± 1.9 | 6.19 ± 0.064 | 5.98 ± 1.8 | 6.55 ± 1.7 | 6.79 ± 0.81 | 6.48 ± 0.13 | 6.47 ± 0.44 | 12.3 ± 0.77 | 14.4 ± 0.58
MKRLKNELNALVNRGVDRHLRLAVTGLSRSGKTAFITAMVNQLLNIHAGARLPLLSAVREERLLGVKRIPQRDFGIPRFTYDEGLAQLYGDPPAWPTPTRGVSEIRLALRFKSNDSLLRHFKDTSTLYLEIVDYPGEWLLDLPMLAQDYLSWSRQMTGLLNGQRGEWSAKWRMMSEGLDPLAPADENRLADIAAAWTDYLHHCKEQGLHFIQPGRFVLPGDMAGAPALQFFPWPDVDTWGESKLAQADKHTNAGMLRERFNYYCEKVVKGFYKNHFLRFDRQIVLVDCLQPLNSGPQAFNDMRLALTQLMQSFHYGQRTLFRRLFSPVIDKLLFAATKADHVTIDQHANMVSLLQQLIQDAWQNAAFEGISMDCLGLASVQATTSGIIDVNGEKIPALRGNRLSDGAPLTVYPGEVPARLPGQAFWDKQGFQFEAFRPQVMDVDKPLPHIRLDAALEFLIGDKLR | 2.94 ± 0.0058 | 6.04 ± 0.74 | 5.52 ± 0.18 | 12.23 ± 0.11 | 6.1 ± 0.29 | 6.51 ± 0.91 | 6.53 ± 0.49 | 6.01 ± 0.15 | 5.93 ± 0.19 | 5.925 ± 0.037 | 10.8 ± 3.9 | 12.2 ± 0.47
MGQSKKLNKQPSSLSPLVQLAGIRKCFDGKEVIPQLDLTINNGEFLTLLGPSGCGKTTVLRLIAGLETVDSGRIMLDNEDITHVPAENRYVNTVFQSYALFPHMTVFENVAFGLRMQKTPAAEITPRVMEALRMVQLETFAQRKPHQLSGGQQQRVAIARAVVNKPRLLLLDESLSALDYKLRKQMQNELKALQRKLGITFVFVTHDQEEALTMSDRIVVMRDGRIEQDGTPREIYEEPKNLFVAGFIGEINMFNATVIERLDEQRVRANVEGRECNIYVNFAVEPGQKLHVLLRPEDLRVEEINDDNHAEGLIGYVRERNYKGMTLESVVELENGKMVMVSEFFNEDDPDFDHSLDQKMAINWVESWEVVLADEEHK | 3.46 ± 0.65 | 6.55 ± 0.38 |  | 12.2 ± 0.83 | 6.41 ± 0.34 | 7.21 ± 0.97 |  | 5.83 ± 0.062 | 5.7 ± 0.78 | 5.77 ± 0.36 | 11.9 ± 0.32 | 13.4 ± 0.35
MLDIDKSTVDFLVTENMVQEVEKVLSHDVPLVHAIVEEMVKRDIDRIYFVACGSPLNAAQTAKHLADRFSDLQVYAISGWEFCDNTPYRLDDRCAVIGVSDYGKTEEVIKALELGRACGALTAAFTKRADSPITSAAEFSIDYQADCIWEIHLLLCYSVVLEMITRLAPNAEIGKIKNDLKQLPNALGHLVRTWEEKGRQLGELASQWPMIYTVAAGPLRPLGYKEGIVTLMEFTWTHGCVIESGEFRHGPLEIVEPGVPFLFLLGNDESRHTTERAINFVKQRTDNVIVIDYAEISQGLHPWLAPFLMFVPMEWLCYYLSIYKDHNPDERRYYGGLVEY [P0AC00] |  | 2.37 ± 0.41 |  |  |  |  |  |  |  |  | 2.71 | 
